Substitutions are numbered along the chain they refer to. Where two headings read alike, the source gives them in different places.

One data set addresses T1, LGP2 RD K634E (human, UniProt Q96C10 537-678, K634E).
T1 sequence: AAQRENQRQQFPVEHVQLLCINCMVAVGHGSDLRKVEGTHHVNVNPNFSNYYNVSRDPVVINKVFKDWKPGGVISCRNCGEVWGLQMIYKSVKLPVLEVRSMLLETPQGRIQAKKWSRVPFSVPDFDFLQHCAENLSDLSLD
Kind of data set: fluorescence anisotropy. A general note: In fluorescence polarisation assays a small probe gives low polarisation when free and higher when bound to something large.

A further data set has as its target T2, LGP2 RD K626E (human, UniProt Q96C10 537-678, K626E).
T2 sequence: T1 sequence with K90E, E98K
Put plainly: fluorescence anisotropy.

A further data set concerns the target T3, LGP2 RD K605E (human, UniProt Q96C10 537-678, K605E).
T3 sequence: T1 sequence with K69E, E98K
Put plainly: fluorescence anisotropy.

Another data set deals with T4, LGP2 RD N583D (human, UniProt Q96C10 537-678, N583D).
T4 sequence: T1 sequence with N47D, E98K
Put plainly: fluorescence anisotropy.

For the next data set, the target named is T5, LGP2 RD L621A (human, UniProt Q96C10 537-678, L621A).
T5 sequence: T1 sequence with L85A, E98K
Kind of data set: fluorescence anisotropy.

The target of the next data set is T6, LGP2 RD P606K (human, UniProt Q96C10 537-678, P606K).
T6 sequence: T1 sequence with P70K, E98K
Put plainly: fluorescence anisotropy.

Another data set has as its target T7, LGP2 RD H576Y (human, UniProt Q96C10 537-678, H576Y).
T7 sequence: T1 sequence with H40Y, E98K
Kind of data set: fluorescence anisotropy.

The target of the next data set is T8, LGP2 RD W604A (human, UniProt Q96C10 537-678, W604A).
T8 sequence: T1 sequence with W68A, E98K
Kind of data set: fluorescence anisotropy.

The target in data set [1] is T9, LGP2 RD wt (human, UniProt Q96C10 537-678).
T9 sequence: T1 sequence with E98K
Put plainly: fluorescence anisotropy.

Data set [2] deals with T9, LGP2 RD wt. Kind of data set: competition.
Data set [3] deals with T9, LGP2 RD wt. Kind of data set: competition. The source holds these as a separate data set.

B1: 25 bp dsRNA (dsRNA)
RNA 1: GCUUGUCGGGAGCGCCACCCUCUGC
RNA 2: GCAGAGGGUGGCGCUCCCGACAAGC
As usually defined, the Kd is the constant that tells how readily two partners part at equilibrium. A low value points to tighter binding. Take B1: in the data set with LGP2 RD K634E, the binding result is “no binding”. Moreover, the Kd with LGP2 RD K626E is 51 ± 5 nM; in the data set with LGP2 RD K605E, 140 ± 16 nM; with LGP2 RD N583D, 38 ± 4 nM; in the data set with LGP2 RD L621A it was 165 ± 26 nM; with LGP2 RD P606K it was 230 ± 10 nM; in the data set with LGP2 RD H576Y, 304 ± 10 nM. Also, the Kd in the data set with LGP2 RD W604A stood at 136 ± 6 nM; in the data set with LGP2 RD wt [1], 68 ± 6 nM.

B2: 5'OH dsRNA 19 bp (dsRNA)
RNA 1: GCAUGCGACCUCUGUUUGA
RNA 2: UCAAACAGAGGUCGCAUGC
For B2, the binding result with LGP2 RD wt [2] is listed as “binds”.

B3: 5'PPP dsRNA 19 bp (dsRNA)
RNA 1: GCAUGCGACCUCUGUUUGA
RNA 2: UCAAACAGAGGUCGCAUGC
modifications: 5'-triphosphate on sense strand
As for B3, the binding result with LGP2 RD wt [3] was “binds”.

These data come from paper PMC2665237.
